Source: paper PMC11532494 (Nature Communications, 2024)

Target: AcuC (acetoin-utilization protein C) of Bacillus subtilis (Bacillus subtilis) (UniProt P39067)
Assay: dose-response enzyme inhibition (Fluor-de-Lys assay)

AcuC (acetoin-utilization protein C) of Bacillus subtilis (Bacillus subtilis), sequence (P39067 whole entry): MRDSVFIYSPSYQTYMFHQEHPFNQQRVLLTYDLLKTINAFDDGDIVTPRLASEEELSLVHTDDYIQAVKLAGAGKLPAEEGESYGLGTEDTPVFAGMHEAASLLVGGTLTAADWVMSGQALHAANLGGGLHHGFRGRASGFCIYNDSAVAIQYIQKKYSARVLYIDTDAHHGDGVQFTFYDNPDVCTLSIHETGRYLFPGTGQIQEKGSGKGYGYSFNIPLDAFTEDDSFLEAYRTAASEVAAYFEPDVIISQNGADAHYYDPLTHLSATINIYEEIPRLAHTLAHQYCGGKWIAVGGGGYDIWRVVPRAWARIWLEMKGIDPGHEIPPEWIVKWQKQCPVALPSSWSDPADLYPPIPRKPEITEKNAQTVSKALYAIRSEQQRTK

Question: Which Ki does the source give for apicidin A (peptide) here?
Answer: < 72 nM
